Patent CN116333117A (LAITEKANG SUZHOU BIOPHARMACEUTICAL CO LTD, dated 2023)

Experiments:
HER3 = target: T1, HER3 (human, UniProt P21860 20-643, limits assumed); assay: ELISA, coated HER3, antibody in 3-fold dilutions
T1 construct: also called ErbB3

[1] = target: T2, hEGFR/ECD-his (自制的C-末端具有his标签的人EGFR胞外域蛋白全长) (human, UniProt P00533 25-645); assay: BLI (ForteBio Qke), antibody on Protein A probes, hEGFR in solution from 20 ug/mL in 1:2 dilutions
T2 construct: extracellular domain; Home-made antigen; also called hEGFR/EDC-his; hEGFR/EGFR-his; not shown: C-terminal his tag

[2] = target: T2, hEGFR/ECD-his …; assay: ELISA, coated hEGFR/ECD-his 1 ug/mL, anti-hIgG Fc-HRP
HER2 = target: T3, HER2 (human, UniProt P04626 23-652, limits assumed); assay: ELISA, coated HER2, antibody in 3-fold dilutions
T3 construct: also called ErbB2

HER4 = target: T4, HER4 (human, UniProt Q15303 26-649, limits assumed); assay: ELISA, coated HER4, antibody in 3-fold dilutions
T4 construct: also called ErbB4
T4 sequence (looked up): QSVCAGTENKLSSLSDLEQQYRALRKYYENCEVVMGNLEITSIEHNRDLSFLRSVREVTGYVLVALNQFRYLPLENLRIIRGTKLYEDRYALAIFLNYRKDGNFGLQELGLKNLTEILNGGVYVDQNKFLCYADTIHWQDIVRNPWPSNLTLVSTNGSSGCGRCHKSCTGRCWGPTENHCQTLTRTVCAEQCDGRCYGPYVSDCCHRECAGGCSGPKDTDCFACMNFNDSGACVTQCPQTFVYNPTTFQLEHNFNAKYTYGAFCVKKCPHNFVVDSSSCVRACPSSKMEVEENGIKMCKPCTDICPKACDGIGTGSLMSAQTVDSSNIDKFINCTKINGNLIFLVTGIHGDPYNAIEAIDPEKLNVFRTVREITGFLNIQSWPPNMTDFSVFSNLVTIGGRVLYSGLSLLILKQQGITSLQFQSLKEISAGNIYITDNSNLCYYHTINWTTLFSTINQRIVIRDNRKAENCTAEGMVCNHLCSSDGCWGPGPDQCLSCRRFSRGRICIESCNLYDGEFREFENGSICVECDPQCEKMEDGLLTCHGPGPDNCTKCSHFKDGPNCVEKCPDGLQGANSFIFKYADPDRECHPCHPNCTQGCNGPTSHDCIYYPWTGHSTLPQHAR

T1 sequence (P21860 20-643 limits assumed): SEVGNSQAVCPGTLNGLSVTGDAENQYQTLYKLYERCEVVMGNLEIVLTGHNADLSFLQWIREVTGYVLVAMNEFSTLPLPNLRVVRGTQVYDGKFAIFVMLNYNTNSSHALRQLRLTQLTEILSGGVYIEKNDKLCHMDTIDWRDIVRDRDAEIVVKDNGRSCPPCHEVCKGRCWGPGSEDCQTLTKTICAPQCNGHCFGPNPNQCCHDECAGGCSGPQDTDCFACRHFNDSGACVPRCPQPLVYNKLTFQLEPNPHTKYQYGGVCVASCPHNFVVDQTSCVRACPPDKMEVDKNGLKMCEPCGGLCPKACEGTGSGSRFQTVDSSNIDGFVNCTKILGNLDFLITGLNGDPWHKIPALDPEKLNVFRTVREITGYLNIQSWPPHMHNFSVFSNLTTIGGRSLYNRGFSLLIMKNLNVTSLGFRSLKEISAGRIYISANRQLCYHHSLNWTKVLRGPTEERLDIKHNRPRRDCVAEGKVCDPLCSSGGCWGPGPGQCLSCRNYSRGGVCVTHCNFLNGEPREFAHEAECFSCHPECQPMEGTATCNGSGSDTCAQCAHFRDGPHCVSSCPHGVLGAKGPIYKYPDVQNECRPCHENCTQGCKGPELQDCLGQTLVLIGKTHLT

binding result (HER3): no binding (tested: 起始浓度为2μg/mL) | Kd [1]: ~2.03 nM | EC50 [2]: ~0.0199 µg/mL | binding result (HER2): no binding (tested: 起始浓度为2μg/mL) | binding result (HER4): no binding (tested: 起始浓度为2μg/mL)
B1: mouse anibody1129 (mAb1129) (antibody, V domains shown)
VH: DVMLVESGGGLVKPGGSLKLSCAASGFAFSNYDMSWVRQTPEKRLEWVAYISSGGDITYYLDTVKGRFTISRDNAKNTLYLQMSSLKSEDTAMYYCARSHYGYYGDTMDYWGQGTSVTVSS
VL: DVVMTQTPLSLPVSLGDQASISCRSSQSLVHSNGNTYLHWYLQKPGQSPKLLIYKVSNRFSGVPDRFSGSGSGTDFTLKISRVEAEDLGVYFCSQSTHVPPTFGGGTKLEIK
notes: also called 抗EGFR抗体mAb1129; 小鼠抗EGFR抗体; not shown: human kappa light chain constant region
